Data taken from IntAct's records for PubMed 21376300.

B1: Band 4.1-like protein 1 (Rattus norvegicus (Rat)), Q9WTP0 (parent)
chain: MTTETGPDSEVKKAQEETPQQPEAAAAVTTPVTPAGHSHPETNSNEKHLTQQDTRPAEQSLDMEEKDYCEADGLSERTTPSKAQKSPQKIAKKFKSATCRVTLLDASEYECEVEKHGRGQVLFDLVCEHLNLLEKDYFGLTFCDADSQKNWLDPSKEIKKQIRSSPWNFAFTVKFYPPDPAQLTEDITRYYLCLQLRADIITGRLPCSFVTHALLGSYAVQAELGDHDTEEHVGNYVSELRFAPNQTRELEERIMELHKTYRGMTPGEAEIHFLENAKKLSMYGVDLHHAKDSEGIDIMLGVCANGLLIYRDRLRINRFAWPKILKISYKRSNFYIKIRPGEYEQFESTIGFKLPNHRSAKRLWKVCIEHHTFFRLVSPEPPPKGFLVMGSKFRYSGRTQAQTRQASALIDRPAPFFERSSSKRYTMSRSLDGAEFSRPASVSENHDAGPDGDKREDDAESGGRRSEAEEGEVRTPTKIKELKPEQETTPRHKQEFLDKPEDVLLKHQASINELKRTLKEPNSKLIHRDRDWERERRLPSSPASPSPKGTPEKASERAGLREGSEEKVKPPRPRAPESDTGDEDQDQERDAVFLKDNHLAIERKCSSITVSSTSSLEAEVDFTVIGDYHGGAFEDFSRSLPELDRDKSDSETEGLVFARDLKGPSSQEDESGGIEDSPDRGACSTPELPQFESVKAETMTVSSLAIRKKIEPEAMLQSRVSTADSTQVDGGAPAAKDFMTTPPCITTETISTTMENSLKSGKGAAAMIPGPQTVATEIRSLSPIIGKDVLTSTYGATAETLSTSTTTHVTKTVKGGFSETRIEKRIIITGDEDVDQDQALALAIKEAKLQHPDMLVTKAVVYRETDPSPEERDKKPQES
B2: Voltage-dependent calcium channel gamma-2 subunit (Rattus norvegicus (Rat)), Q71RJ2 (parent)
chain: MGLFDRGVQMLLTTVGAFAAFSLMTIAVGTDYWLYSRGVCKTKSVSENETSKKNEEVMTHSGLWRTCCLEGNFKGLCKQIDHFPEDADYEADTAEYFLRAVRASSIFPILSVILLFMGGLCIAASEFYKTRHNIILSAGIFFVSAGLSNIIGIIVYISANAGDPSKSDSKKNSYSYGWSFYFGALSFIIAEMVGVLAVHMFIDRHKQLRATARATDYLQASAITRIPSYRYRYQRRSRSSSRSTEPSHSRDASPVGVKGFNTLPSTEISMYTLSRDPLKAATTPTATYNSDRDNSFLQVHNCIQKDSKDSLHANTANRRTTPV

Variants of: B1
Conditions: with gria1_rat Gria1, P19490
Target sequence in this assay (P19490 whole entry): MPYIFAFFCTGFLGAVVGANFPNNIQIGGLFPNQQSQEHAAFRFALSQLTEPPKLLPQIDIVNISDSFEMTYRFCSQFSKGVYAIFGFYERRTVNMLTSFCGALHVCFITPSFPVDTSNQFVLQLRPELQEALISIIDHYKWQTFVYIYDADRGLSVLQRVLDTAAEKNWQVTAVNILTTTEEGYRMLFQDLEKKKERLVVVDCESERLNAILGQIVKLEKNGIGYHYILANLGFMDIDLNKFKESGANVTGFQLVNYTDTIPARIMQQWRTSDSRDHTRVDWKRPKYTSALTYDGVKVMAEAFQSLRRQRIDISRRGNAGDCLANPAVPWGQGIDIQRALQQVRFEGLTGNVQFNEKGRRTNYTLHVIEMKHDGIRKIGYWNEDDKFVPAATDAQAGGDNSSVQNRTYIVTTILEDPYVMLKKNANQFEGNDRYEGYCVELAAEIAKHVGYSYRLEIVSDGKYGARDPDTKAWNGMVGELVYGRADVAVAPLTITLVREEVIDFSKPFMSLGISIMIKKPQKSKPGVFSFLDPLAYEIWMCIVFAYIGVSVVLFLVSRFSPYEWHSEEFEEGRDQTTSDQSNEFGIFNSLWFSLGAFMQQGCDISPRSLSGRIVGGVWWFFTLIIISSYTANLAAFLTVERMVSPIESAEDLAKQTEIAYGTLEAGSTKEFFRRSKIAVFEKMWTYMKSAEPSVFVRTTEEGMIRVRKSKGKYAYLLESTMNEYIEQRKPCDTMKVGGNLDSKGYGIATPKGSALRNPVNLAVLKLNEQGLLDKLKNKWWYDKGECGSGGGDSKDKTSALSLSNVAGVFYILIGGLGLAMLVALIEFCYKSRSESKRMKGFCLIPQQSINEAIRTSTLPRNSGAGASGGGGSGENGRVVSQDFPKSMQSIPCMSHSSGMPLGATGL

Row | Variant | effect of a mutation on the interaction
1 | P852S | decreasing interaction

Variants of: B2
Conditions: with gria1_rat Gria1, P19490
Target sequence in this assay (P19490 whole entry): as above

Row | Variant | effect of a mutation on the interaction
2 | MGLFDRGVQMLLTTVGAFAAFSLMTIAVGTDYWLYSRGVCKTKSVSENETSKKNEEVMTHSGLWRTCCLEGNFKGLCKQIDHFPEDADYEADTAEYFLRAVRASSIFPILSVILLFMGGLCIAASEFYKTRHNIILSAGIFFLSAGLSNIIGIIVYISANAGDPSKSDSKKNSYSYGWSFYFGALSFIIAEMVGVLAVHMFIDRHKQLRATARATDYLQASAITRIPSYRYRYQRRSRSSSRSTEPSHSRDASPVGVKGFNTLPSTEISMYTLSRDPLKAATTPTATYNSDRDNSFLQVHNCIQKDSKDSLHANTANRRTTPV [V143L] | decreasing interaction

Variants of: B2
Conditions: with gria2_rat Gria2, P19491
Chain of gria2_rat Gria2, P19491 (P19491 whole entry): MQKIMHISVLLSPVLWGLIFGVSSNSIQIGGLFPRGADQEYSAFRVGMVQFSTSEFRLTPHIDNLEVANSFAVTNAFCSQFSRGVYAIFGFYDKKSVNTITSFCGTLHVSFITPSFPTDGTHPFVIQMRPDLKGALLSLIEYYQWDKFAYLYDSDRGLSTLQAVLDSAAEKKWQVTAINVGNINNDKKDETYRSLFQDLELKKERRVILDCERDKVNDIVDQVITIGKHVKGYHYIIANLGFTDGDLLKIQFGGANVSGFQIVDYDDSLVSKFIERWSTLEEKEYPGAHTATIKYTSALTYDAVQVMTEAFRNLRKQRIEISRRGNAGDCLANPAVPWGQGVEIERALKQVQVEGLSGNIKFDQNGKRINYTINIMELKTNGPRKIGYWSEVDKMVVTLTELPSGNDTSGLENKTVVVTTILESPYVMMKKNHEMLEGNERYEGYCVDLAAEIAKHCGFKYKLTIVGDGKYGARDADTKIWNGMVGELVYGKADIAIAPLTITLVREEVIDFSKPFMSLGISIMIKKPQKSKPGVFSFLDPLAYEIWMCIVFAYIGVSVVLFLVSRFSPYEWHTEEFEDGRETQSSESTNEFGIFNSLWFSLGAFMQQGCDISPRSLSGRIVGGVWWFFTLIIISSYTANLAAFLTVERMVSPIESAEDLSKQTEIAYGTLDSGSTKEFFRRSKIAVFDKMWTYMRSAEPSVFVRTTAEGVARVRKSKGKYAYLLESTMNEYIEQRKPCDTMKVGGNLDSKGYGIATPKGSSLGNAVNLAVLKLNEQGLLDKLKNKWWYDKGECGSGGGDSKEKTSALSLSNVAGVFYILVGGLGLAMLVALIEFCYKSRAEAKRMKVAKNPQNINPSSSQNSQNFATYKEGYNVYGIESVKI

Row | Variant | effect of a mutation on the interaction
3 | MGLFDRGVQMLLTTVGAFAAFSLMTIAVGTDYWLYSRGVCKTKSVSENETSKKNEEVMTHSGLWRTCCLEGNFKGLCKQIDHFPEDADYEADTAEYFLRAVRASSIFPILSVILLFMGGLCIAASEFYKTRHNIILSAGIFFLSAGLSNIIGIIVYISANAGDPSKSDSKKNSYSYGWSFYFGALSFIIAEMVGVLAVHMFIDRHKQLRATARATDYLQASAITRIPSYRYRYQRRSRSSSRSTEPSHSRDASPVGVKGFNTLPSTEISMYTLSRDPLKAATTPTATYNSDRDNSFLQVHNCIQKDSKDSLHANTANRRTTPV [V143L] | decreasing interaction
